# Measured values reported in publication PMC10659930 (Cell Chemical Biology, 2023).
# B1: ADPT02606 (antibody, V domains shown)
# VH: EVQLVESGGGLVKPGGSLRLSCAASGFTFSSYSMNWVRQAPGKGLEWVSSITSSSGYMYYADSVKGRFTISRDNAKNSLYLQLNSLRAEDTAVYYCAKDSAFDLWEVRSYYYVMDVWGQGTTVTVSS
# VL: not shown
# Molecular target: SARS-CoV-2 spike S1 domain (SARS-CoV-2, ancestral (Wuhan-Hu-1/WA1 …, UniProt P0DTC2))
# Experiment: ELISA
binder,measurement,value
B1,binding result,binds
